Results on 1 molecule are retold here after patent US20250388669A1 (published 2025).

In the assay the target is T1, B7H3 (human, UniProt Q5ZPR3 29-466, limits assumed).
T1 sequence (looked up): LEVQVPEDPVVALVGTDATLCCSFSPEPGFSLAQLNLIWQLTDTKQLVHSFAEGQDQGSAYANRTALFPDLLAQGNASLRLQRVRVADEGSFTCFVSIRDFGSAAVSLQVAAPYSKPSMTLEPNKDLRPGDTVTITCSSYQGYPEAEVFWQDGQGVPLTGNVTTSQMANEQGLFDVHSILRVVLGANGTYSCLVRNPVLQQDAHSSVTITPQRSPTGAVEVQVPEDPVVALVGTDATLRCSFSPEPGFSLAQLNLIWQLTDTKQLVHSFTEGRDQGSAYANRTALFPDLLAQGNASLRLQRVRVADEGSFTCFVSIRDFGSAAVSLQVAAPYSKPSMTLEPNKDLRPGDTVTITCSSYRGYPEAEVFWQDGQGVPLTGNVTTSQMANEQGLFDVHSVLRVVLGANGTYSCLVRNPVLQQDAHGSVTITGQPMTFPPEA
Briefly: ELISA or FCM (Example 2). In general terms: ELISA stands for enzyme-linked immunosorbent assay.

B1: Ly2367 (other)
chain 1: QVQLVQSGAEVKKPGASVKVSCKASGYTFTSYVMHWVRQKPGQGLEWIGYINPYNEGTESTDKFKGRATMTSDKSTSTVYMELSSLRSEDTAVYYCASIYYGYEGTYFGVWGQGTLVTVSSASTKGPSVFPLAPSSKSTSGGTAALGCLVKDYFPEPVTVSWNSGALTSGVHTFPAVLQSSGLYSLSSVVTVPSSSLGTQTYICNVNHKPSNTKVDKKVEPKSCGGGGSEVQLVESGGGLVQPGGSLRLSCAASGFTFSTYAMNWVRQAPGKGLEWVGRIRSKYNNYATYYADSVKGRFTISRDDSKNSLYLQMNSLKTEDTAVYYCVRHGNFGNSYVSWFAYWGQGTLVTVSSGGGGSDKTHTCPPCPAPEAAGPSVFLFPPKPKDTLMISRTPEVTCVVVDVSHEDPEVKFNWYVDGVEVHNAKTKPREEQYNSTYRVVSVLTVLHQDWLNGKEYKCKVSNKALPAPIEKTISKAKGQPREPQVYTLPPSREEMTKNQVSLWCLVKGFYPSDIAVEWESNGQPENNYKTTPPVLDSDGSFFLYSKLTVDKSRWQQGNVFSCSVMHEALHNHYTQKSLSLSPGGGGGSGGGGSGGGGSGGGGSQVQLVQSGAEVKKPGASVKVSCKASGYTFAGFEMHWVRQAPGQGLEWMGAIDPKTGGTDYNQKFKDRVTMTRDTSISTAYMELSRLRSDDTAVYYCARDLGYFDVWGQGTLVTVSS
chain 2: QVQLVQSGAEVKKPGASVKVSCKASGYTFTSYVMHWVRQKPGQGLEWIGYINPYNEGTESTDKFKGRATMTSDKSTSTVYMELSSLRSEDTAVYYCASIYYGYEGTYFGVWGQGTLVTVSSASTKGPSVFPLAPSSKSTSGGTAALGCLVKDYFPEPVTVSWNSGALTSGVHTFPAVLQSSGLYSLSSVVTVPSSSLGTQTYICNVNHKPSNTKVDKKVEPKSCGGGGSQAVVTQEPSLTVSPGGTVTLTCRSSTGAVTTSNYANWVQQKPGQAPRGLIGGTNKRAPWTPARFSGSLLGGKAALTITGAQAEDEADYYCALWYSNLWVFGGGTKLTVLGGGGSDKTHTCPPCPAPEAAGPSVFLFPPKPKDTLMISRTPEVTCVVVDVSHEDPEVKFNWYVDGVEVHNAKTKPREEQYNSTYRVVSVLTVLHQDWLNGKEYKCKVSNKALPAPIEKTISKAKGQPREPQVYTLPPSREEMTKNQVSLSCAVKGFYPSDIAVEWESNGQPENNYKTTPPVLDSDGSFFLVSKLTVDKSRWQQGNVFSCSVMHEALHNRFTQKSLSLSPGGGGGSGGGGSGGGGSGGGGSDIQMTQSPSSLSASVGDRVTITCRASQDIRSNLNWYQQKPGGAVKLLIYYTSRLHSGVPSRFSGSGSGTDYTLTISSLQPEDFATYFCQQSEKLPRTFGGGTKVEIR
light: EIVLTQSPATLSLSPGERATLSCRASSSVSYMHWYQQKPGQAPRPWIYATSNLASGIPARFSGSRSGTDYTLTISSLEPEDFAVYYCQQWSSNTLTFGGGTKVEIKRTVAAPSVFIFPPSDEQLKSGTASVVCLLNNFYPREAKVQWKVDNALQSGNSQESVTEQDSKDSTYSLSSTLTLSKADYEKHKVYACEVTHQGLSSPVTKSFNRGEC
notes: Tri-specific antibody: B7H3 Fabs, central CD3 Fv, terminal CD137 Fv; Flexible linker is G4S
As for B1, the binding result is on record as “binds”.
